Publication PMC3961188, “The bHLH Factors Extramacrochaetae and Daughterless Control Cell Cycle in Drosophila Imaginal Discs through the Transcriptional Regulation of the cdc25 Phosphatase string”

Assays:
[1] = target: T1, Daughterless (Da), GST fusion (Drosophila melanogaster, UniProt P11420 1-710); experiment: EMSA; Cy5 and Cy3 versions of the probe; not stated in the material (EMSA buffer, salt, pH and temperature not given); conditions: protein: recombinant; tags: N-terminal GST (pDEST 15); chain copies: 2; blunt
T1 sequence: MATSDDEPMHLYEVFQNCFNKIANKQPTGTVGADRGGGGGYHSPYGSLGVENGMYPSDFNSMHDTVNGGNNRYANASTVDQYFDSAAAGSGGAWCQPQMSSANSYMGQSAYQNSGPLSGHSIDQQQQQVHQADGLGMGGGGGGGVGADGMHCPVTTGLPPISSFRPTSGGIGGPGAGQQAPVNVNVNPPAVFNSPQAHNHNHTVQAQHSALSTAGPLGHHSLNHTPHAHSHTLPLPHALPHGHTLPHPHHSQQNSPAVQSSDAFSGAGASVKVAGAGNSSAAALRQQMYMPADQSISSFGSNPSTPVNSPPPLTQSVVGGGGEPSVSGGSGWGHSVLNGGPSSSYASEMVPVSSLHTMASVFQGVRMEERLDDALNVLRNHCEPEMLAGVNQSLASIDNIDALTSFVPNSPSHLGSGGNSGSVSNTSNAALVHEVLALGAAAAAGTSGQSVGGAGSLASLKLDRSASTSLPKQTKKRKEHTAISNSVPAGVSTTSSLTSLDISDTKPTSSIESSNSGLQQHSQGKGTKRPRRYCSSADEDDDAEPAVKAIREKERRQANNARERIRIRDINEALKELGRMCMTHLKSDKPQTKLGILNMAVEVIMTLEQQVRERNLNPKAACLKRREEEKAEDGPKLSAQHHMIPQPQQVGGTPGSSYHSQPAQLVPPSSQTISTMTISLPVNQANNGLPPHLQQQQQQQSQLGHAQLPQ

[2] = target: T1, Daughterless (Da), GST fusion; experiment: EMSA; direct Cy5 probe; not stated in the material (EMSA buffer, salt, pH and temperature not given); conditions: protein: recombinant; tags: N-terminal GST (pDEST 15); chain copies: 2; blunt

B1: stg prom (cy5 / cy3) (dsDNA)
DNA 1: TAGCTCATCAGCTGATCGTGA
DNA 2: TCACGATCAGCTGATGAGCTA
binding result [1]: binds

B2: stg prom* (cy5) (dsDNA)
DNA 1: TAGCTCATACTAGTATCGTGA
DNA 2: TCACGATACTAGTATGAGCTA
binding result [2]: no binding
